# From patent US8846868B2, “Anti-AREG/HB-EGF antibodies and treatment” (Fusion Antibodies Limited, priority 2008, dated 2014)
# Changes are numbered by the printed parent chain.
# B1: 8d7 1f6 2f7: cross-specific AREG/HBEGF murine monoclonal antibody; VH Sequence ID No: 7, VL Sequence ID No: 8 (antibody, listed as Mus musculus)
# VH: MKCSWIIFFLMAVVTGVNSEVQLQQSGAELVRPGALVKLSCKASGFNIKDSYIHWVNQRPEQGLEWIGWIDPENGNTIYDPKFQGKASITADTSSNTAYLQLSSLTSEDTAVYYCVSASYRYGFSYWGQGTLVTVSAAKTTPPPVYPLAPGSL
# VL: MRAPAQFLGLLVLWIPGAIGDIVMTQAAPSVPVTPGESVSISCRSNKSLLHTNGNTYLYWFLQRPGQSPQLLIYRMSNLASGVPDRFSGSGSGTAFTLRISRVEAEDVGVYYCMQHLEYPYTFGGGTKLEIKRADAAPTVSIFPPSSKLG
# B2: 8d7 1f6 2b3: cross-specific AREG/HBEGF murine monoclonal antibody; VH Sequence ID No: 9, VL Sequence ID No: 10 (antibody, listed as Mus musculus)
# VH: B1 VH with I6V, I7M
# VL: B1 VL with A3P, A5L, Q6S
# B3: 8d7 1c8 1e9: cross-specific AREG/HBEGF murine monoclonal antibody; VH Sequence ID No: 5, VL Sequence ID No: 6 (antibody, listed as Mus musculus)
# VH: MEWSWVILFLMAVVTGVNSEVQLQQSGAELVRPGALVKLSCKASGFNIKDSYIHWVNQRPEQGLEWIGWIDPENGNTIYDPKFQGKASITADTSSNTAYLQLSSLTSEDTAVYYCVSASYRYGFSYWGQGTLVTVSAAKTTPPSVYPWVPGSLX
# VL: XADXISISCRSNKSLLHTNGNTYLYWFLQRPGQSPQLLIYRMSNLASGVPDRFSGSGSGTAFTLRISRVEAEDVGVYYCMQHLEYPYTFGGGTKLEIKRXX
# modifications: not fully specified; (154)..(154) Xaa can be any naturally occurring amino acid; (1)..(1) Xaa can be any naturally occurring amino acid
# B4: Recombinant HBEGF: recombinant HBEGF ligand used to stimulate cell growth and EGFR phosphorylation (protein)
# chain: DLQEADLDLLRVTLSSKPQALATPNKEEHGKRKKKGKGLGKKRDPCLRKYKDFCIHGECKYVKELRAPSCICHPGYHGERCHGLSL
# Experiments:
# [1] = system: cell growth; experiment: Comparison of cross-specific antibody to Cetuximab, MTT cell viability; format: cell-based; details: cell growth assay
# Method: Antibodies were added to cells at concentration of 20 ug/ml and 40 ug/ml alone and in combination with chemotherapy treatment. Cell viability was assessed 72 hrs after treatment by MTT assay. ** indicates nt P<0.001. * indicates p<0.05.
# [2] = system: pEGFR(Tyr1068) in MDA-MB231 cells; experiment: Ligand stimulated phosphorylation of EGFR, MDA-MB231; format: cell-based, human; details: antibody pre-incubated with recombinant HBEGF 1 hour, 20 mins stimulation
# Method: (§1) Cells were serum starved before addition of antibody and ligand. Cross-specific antibody (8d7 1f6 2f7, i.e. “2F7”) was pre-incubated with recombinant HBEGF for 1 hour before addition to cells. Cells were stimulated for 20 mins before preparation of cell lysates. 30 μg of protein was loaded on SDS-PAGE gel and transferred to nitrocellulose membrane. The membrane was probed with anti pEGFR(Tyr^1068)
# (§2) 1.5×10^6 cells were seeded in […] in media containing 10% serum. 24 hrs after seeding cells were serum starved for 4 hrs. Antibodies were preincubated for 1 hour with 30 ng/ml of recombinant HBEGF before being added to cells for 20 mins in 2% serum. Cells were washed 3 times in PBS containing phosphatase inhibitors and scraped. Cells were pelleted and lysed. Protein concentration was determined and 30 ug of protein ran on SDS-PAGE for western blot analysis. Blots were probed with pEGFR(Tyr^1068) antibody.
# [3] = system: pEGFR(Tyr1068) in HCT116 cells; experiment: Ligand stimulated phosphorylation of EGFR, HCT116; format: cell-based, human; details: antibody pre-incubated with recombinant HBEGF 1 hour, 20 mins stimulation
# Method: as §1, §2
# [4] = system: pEGFR(Tyr 1068) in LoVo cells; experiment: Ligand stimulated phosphorylation of EGFR, LoVo; format: cell-based; details: antibody pre-incubated with recombinant HBEGF 1 hour, 20 mins stimulation
# Method: Cells were serum starved before addition of antibody and ligand. Cross-specific antibody (8d7 1f6 2f7, i.e. “2F7”) was pre-incubated with recombinant HBEGF for 1 hour before addition to cells. Cells were stimulated for 20 mins before preparation of cell lysates. 30 μg of protein was loaded on SDS-PAGE gel and transferred to nitrocellulose membrane. The membrane was probed with anti pEGFR(Tyr 1068)
# as §2
# [5] = system: cancer cell proliferation; experiment: Cancer cell proliferation, cross-specific antibody alone or with cpt11, MTT assay; format: cell-based; details: 100 nM antibody in combination with 10 μM cpt11; MTT 72 hrs
# Method: Cells were treated with 100 nM isotype control or 100 nM cross-specific antibody (8d7 1f6 2f7 i.e. “2F7” or 8d7 1f6 2b3 i.e. “2B3” alone or in combination with 10 μM cpt11. Cells were analysed by MTT assay after 72 hrs treatment. ** indicates statistically significant P<0.001. 2B3 RI value is 0.99 therefore an additive effect. 2F7 RI value is 1.1 therefore (slightly) synergistic.
# (§3) Cell viability was assessed by 3-(4,5-dimethylthiazol-2-yl)-2,5-diphenyltetrazolium bromide (MTT, Sigma) assay (Mosmann, 1983). To assess chemotherapy/siRNA interactions 5000 cells were seeded per well on 96 well plate. After 24 hours cells were transfected with siRNA and treated with various chemotherapeutic agents at different concentrations. After 48 hours MTT (1.0 mg/ml) was added to each well and cells were incubated at 37° C. for 2 hours. The culture media was removed and formazan crystals were reabsorbed in 200 μl DMSO. Cell viability was determined by reading the absorbance of each well at 570 nm using a microplate reader (Tecan Sunrise, Biorad, UK).
# [6] = system: colorectal cancer cell line LoVo; experiment: HBEGF ligand stimulated growth, MTT assay; format: cell-based
# Method: Different concentrations of cross-specific antibody was preincubated with ligand for an hour before addition to cells. Cell viability was assessed 48 hrs after treatment by MTT assay.
# as §3
molecule,measurement,setting,value
"CCc1c2c(nc3ccc(OC(=O)N4CCC(N5CCCCC5)CC4)cc13)-c1cc3c(c(=O)n1C2)COC(=O)[C@]3(O)CC [cpt-11, irinotecan]",IC30,[1],5 µM
B1,inhibition of HBEGF stimulated phosphorylation of EGFR,[2],inhibition of ligand stimulation phosphorylation of EGFR
same,inhibition of HBEGF stimulated phosphorylation of EGFR,[3],inhibition of ligand stimulation phosphorylation of EGFR
same,inhibition of HBEGF stimulated phosphorylation of EGFR,[4],inhibition of ligand stimulation phosphorylation of EGFR
same,RI value,[5],1.1
B2,RI value,[5],0.99
B3,effect on HBEGF stimulation of cell growth,[6]; 300 nM antibody,prevents any stimulation of cell growth by HBEGF
same,inhibition of ligand induced growth,"[6]; different antibody concentrations pre-incubated with HBEGF 1 hr, MTT 48 hrs",inhibit the ligand induced growth in a dose dependent manner
B4,stimulation of growth,"[6]; recombinant HBEGF ligand, MTT 48 hrs",approximately 60%
